Results on 4 molecules are retold here after patent US10407662B2, “Method of culturing pluripotent stem cell, and polypeptide to be used therefor” (FUJIFILM Corporation, priority 2012, dated 2019).

Data set [1] is described as follows: Presence or absence of aggregation after dialysis. The class given is physicochemical. The settings on record: after stepwise dialysis removing urea. The protocol:
For from RCP-1 to RCP-10, and RCP-17, each polypeptide solution after the purification was dialyzed using a SLIDE-A-LIZER (3.5K MWCO). A dialysis external liquid was based on a dialysis buffer (PBS, 1.5 M NaCl, 0.5 M L-arginine, 1 mM EDTA, pH 7.4), and urea was removed by stepwise dialysis. The concentration of an end dialysis product was calculated at an absorbance of 280 nm using a NANODROP (Thremo Fisher Scientific Inc.).
In addition, the presence or absence of aggregation was evaluated by G, A, and B below.
G: Formation of an aggregate is not observed.
A: Formation of particles having a particle diameter of around 100 nm is observed.
B: Formation of visible aggregation with a particle diameter of 1 mm or more is observed.

Data set [2] deals with human iPS cells. The experiment in a line: Proliferation Evaluation of iPS cells on polypeptide-coated plate. Format: cell-based. The settings on record: for The Number (%) of Cells after 3 Days: 5000 cells/well. The method, then: The iPS cells collected in the same manner as in <Cell Adhesiveness Evaluation 1>described above were seeded on a 96-well plate, to which RCP-1, RCP-11, and the natural human vitronectin were adsorbed, at a rate of 250 cells/well, and were cultured in a 5% CO2 incubator at 37° C. for 8 days. The number of adherent cells after each lapse of time was measured by the same method as in <Cell Adhesiveness Evaluation 1> described above, to obtain proliferation curves, The proliferation curves were indicated in FIG. 2. In FIG. 2, a black rhombus represents an example in which RCP-1 was used, while a black tetragon represents an example in which RCP-11 was used.
Similarly, each of samples from […] was prepared so as to have an addition concentration listed in Table 8 with each of from RCP-1 to RCP-10, and RCP-17, and Human Recombinant Laminin-511 as a reference, was seeded on a 96-well plate, to which each polypeptide was adsorbed, at a rate of 5000 cells/well in the same manner as in<Cell Adhesiveness Evaluation 1> described above, and was cultured in a CO2 incubator at 37° C. for 3 days. The number of cells after the 3 days was measured by the same method as in <Cell Adhesiveness Evaluation 1> described above.

Data set [3] has as its system human iPS cells. The experiment in a line: Cell Adhesiveness Evaluation 3 (RCP-1 addition amount series). Format: cell-based. Particulars: adding not less than 125 pmol/cm^2. The protocol: Cell adhesiveness was evaluated in the same manner as in <Cell Adhesiveness Evaluation 1> except that RCP-1 was adjusted with PBS to have a concentration of from 125 pmol/cm^2 to 1000 pmol/cm^2 to be used. In Table 9, cell adhesion rates were relative values in a case in which a cell adhesion rate to a cultivation container to which natural vitronectin was adsorbed at a concentration of 130 pmol/cm^2 was regarded as 100. n=3.

The nature of data set [4]: Evaluation of adsorptivity to culture plate (OPA fluorescence). The class given is physicochemical. The settings on record: FIG. 1; for adsorptivity to a plate: 0 to 200 pmol/cm^2, 37° C. 2 hours, washed with PBS twice. The method, then: Each polypeptide obtained by the above-described method was diluted with a predetermined buffer so as to be added to wells at a predetermined final concentration of from 0 to 200 pmol/cm^2, and the resultant was aliquoted in 64 μL to a 96-well plate made of polystyrene and treated with plasma (Tissue Culture-Treated, Falcon). Each polypeptide was adsorbed to the plate by incubation at 37° C. for 2 hours, and was thereafter washed with PBS twice, to obtain a surface coated with each of the polypeptides of from RCP-1 to RCP-16.
To surfaces coated with RCP-1, and from RCP-11 to RCP-16 among the polypeptide-coated surfaces obtained as described above, 64 μL of each of boric acid buffer and 1 N NaOH was applied, and incubated at 80° C. and a humidity of 100% for 24 hours. After air-cooling, 75 μL of boric acid buffer was added to each well, and 50 μL of reaction liquid in which an OPA (o-phthalaldehyde: Wako Pure Chemical Industries, Ltd.)/methanol solution (160 mg/ml) and an NAC (N-acetyl-L-cysteine: Wako Pure Chemical industries, Ltd.)/boric acid buffer solution (2 mg/ml) were mixed at 1:100 (mass ratio) was further added. After incubation at 40° C. for 30 minutes, the fluorescence intensity thereof was measured (excitation of 355 nm/fluorescence of 486 nm) using an ENVISION MULTI-LABEL COUNTER (PerkinElmer Inc.). A calibration curve was separately made from each polypeptide solution, to calculate an amount of adsorption. In FIG. 1, a black rhombus, a black tetragon, a black triangle, a black circle, a white rhombus, a white tetragon, and a white triangle represent RCP-1, RCP-11, RCP-12, RCP-13, RCP-14, RCP-15, and RCP-16, respectively.

For data set [5], the system named is human iPS cells. Nature of the data set: Evaluation of Maintenance of Undifferentiation (colony form, NANOG staining). Format: cell-based. The protocol: iPS cells collected in the same manner as in <Cell Adhesiveness Evaluation 1> described above were suspended in TESR2. Induced pluripotent stem cells (iPS cells) were seeded on a 6-well plate (Tissue Culture-Treated, Falcon) to which each of the sample 1, the sample 2, the sample 5, the sample 6, and the sample 7 used in <Cell Adhesiveness Evaluation 1> described above was adsorbed in the same manner as in <Cell Adhesiveness Evaluation 1>, and were cultured in a CO2 incubator at 37° C. The culture medium was replaced by a fresh culture medium every day except the next day after the seeding. Subculture was performed by the same method as mentioned above every six days.
The cells were cultured under these conditions for 1 month, thereafter immobilized with 4% paraformaldehyde, and made to have membrane permeability enhanced with 1% Triton-X/PBS. Blocking treatment was performed with an Image IT Signal Enhancer (Invitrogen), followed by adding an anti-human NANOG antibody (AF1997, R&D Systems, Inc), ALEXA FLUOR 555-CONJUGATE rabbit anti-goat IgG antibody (Invitrogen), and DAPI (Dojindo Laboratories), by performing labeling, and by photographing the cells with a fluorescence microscope.
In each of FIG. 3 and FIG. 4, “A”, “B”, “C” “D”, and “E” show iPS cells cultured on RCP-1, iPS cells cultured on RCP-11, iPS cells cultured on the natural human vitronectin, iPS cells cultured on rinaminin-5, and iPS cells cultured on rLaminin-511, respectively. Scale bar: 100 μm. In FIG. 3, overall colony images are shown in the left column, while magnified images are shown in the right column; and in FIG. 4, DAPI-stained images are shown in the left column while anti-NANOG antibody-stained images are shown in the right column. Scale bars in FIGS. 3 and 4: 200 μm.

B1: RCP-9: recombinant polypeptide, Met + human vitronectin positions 1-55, 269-373, 374-389, C274S (protein)
chain: MDQESCKGRCTEGFNVDKKCQCDELCSYYQSCCTDYTAECKPQVTRGDVFTMPEDESQEESEGSSLSAVFEHFAMMQRDSWEDIFELLFWGRTSAGTRQPQFISRDWHGVPGQVDAAMAGRIYISGMAPRPSLAKKQRFRHRNRKGYRSQRGHSRGRNQNSRRPSRATWLSLFSSE
modifications: Synthetic Peptide RCP-9
notes: recombinant polypeptide, Met + human vitronectin positions 1-55, 269-373, 374-389, C274S
With B1, the Aggregation entry in data set [1] is recorded as “B (Formation of visible aggregation with a particle diameter of 1 mm or more is observed.)”. The “The Number (%) of Cells after 3 Days” value in the data set with human iPS cells [2] (addition amount 20 μg/cm^2) stood at 105.8%.

B2: RCP-1: recombinant polypeptide, Met + human vitronectin (SEQ ID NO:3) positions 1-55, 269-459 (protein)
chain: MDQESCKGRCTEGFNVDKKCQCDELCSYYQSCCTDYTAECKPQVTRGDVFTMPEDEPSQEECEGSSLSAVFEHFAMMQRDSWEDIFELLFWGRTSAGTRQPQFISRDWHGVPGQVDAAMAGRIYISGMAPRPSLAKKQRFRHRNRKGYRSQRGHSRGRNQNSRRPSRATWLSLFSSEESNLGANNYDDYRMDWLVPATCEPIQSVFFFSGDKYYRVNLRTRRVDTVDPPYPRSIAQYWLGCPAPGHL
modifications: Synthetic Peptide RCP-1
As to B2, the “adhesiveness of iPS cells (in words)” value in the data set with human iPS cells [3] was “cell adhesion rate equivalent to that of natural vitronectin”. The “cell proliferation property (in words)” value with human iPS cells [2] (FIG. 2 and Table 8) was “higher cell proliferation property than that of RCP-11”. Also, the “The Number (%) of Cells after 3 Days” value with human iPS cells [2] (addition amount 80 μg/cm^2) came out at 100.0%. In addition, in data set [4], the “adsorptivity to a plate” value was “favorable adsorptivity to a plate, equivalent to that of RCP-11”. Further, the “form of iPS cell colonies” value in the data set on human iPS cells [5] (FIG. 3, TESR2, subculture every six days) was “homogeneous colony and a form characteristic for undifferentiated cells having a high nucleus occupying rate”. Besides, the “NANOG expression (immunostaining)” value with human iPS cells [5] (FIG. 4, cultured for 1 month) is given as “strongly expressed NANOG in an overall colony”. In the data set on human iPS cells [5] (cultured for 1 month), the “maintenance of undifferentiated state” value is “undifferentiated state was favorably maintained”.

B3: RCP-10: recombinant polypeptide, Met + human vitronectin positions 1-55, 269-373, 374-399, C274S (protein)
chain: MDQESCKGRCTEGFNVDKKCQCDELCSYYQSCCTDYTAECKPQVTRGDVFTMPEDESQEESEGSSLSAVFEHFAMMQRDSWEDIFELLFWGRTSAGTRQPQFISRDWHGVPGQVDAAMAGRIYISGMAPRPSLAKKQRFRHRNRKGYRSQRGHSRGRNQNSRRPSRATWLSLFSSEESNLGANNYD
modifications: Synthetic Peptide RCP-10
notes: recombinant polypeptide, Met + human vitronectin positions 1-55, 269-373, 374-399, C274S
On to B3, for which, in data set [1], the Aggregation result is reported as “B (Formation of visible aggregation with a particle diameter of 1 mm or more is observed.)”. Further, the “The Number (%) of Cells after 3 Days” value in the data set on human iPS cells [2] (addition amount 20 μg/cm^2) worked out at 101.9%.

B4: RCP-13: comparative recombinant polypeptide, GPLG + human vitronectin positions 1-55, 56-129 (protein)
chain: GPLGDQESCKGRCTEGFNVDKKCQCDELCSYYQSCCTDYTAECKPQVTRGDVFTMPEDEYTVYDDGEEKNNATVHEQVGGPSLTSDLQAQSKGNPEQTPVLKPEEEAPAPEVGASKPEGIDSRPETLHPGRPQP
modifications: Synthetic Peptide RCP-13
On to B4, for which, in data set [4], the “adsorption amount relative to that of the polypeptide containing SEQ ID NO:2” value is given as “¼” and the “adsorptivity to a plate” value was “inadequate as an adsorbent to a culture plate”.
